According to PMC2935968 (2010):

Target: T1, CHORDII domain of cress (Arabidopsis thaliana) Rar1 (Arabidopsis thaliana, UniProt Q9SE33 149-221)
T1 chain: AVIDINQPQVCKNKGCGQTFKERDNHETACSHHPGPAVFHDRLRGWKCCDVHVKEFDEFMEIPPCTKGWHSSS
Test: ITC

Kd: 22.3 µM
B1: N-terminal domain of barley (Hordeum vulgare) Hsp90 (domain or fragment)
chain: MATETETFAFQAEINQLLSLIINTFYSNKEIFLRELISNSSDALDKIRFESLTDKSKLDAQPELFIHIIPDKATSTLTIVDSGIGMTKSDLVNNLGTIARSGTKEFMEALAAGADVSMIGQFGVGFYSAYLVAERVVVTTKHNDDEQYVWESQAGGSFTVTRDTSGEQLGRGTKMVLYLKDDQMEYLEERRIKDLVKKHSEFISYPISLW
